Data taken from patent publication US20090269831A1 (REGENTS OF THE UNIVERSITY OF MINNESOTA, published 2009).
Where a chain is given by its changes, count along the chain named. In names and notes the source's numbering stands.

Tests used:
[1] = molecular target: the molecule itself; assay: size exclusion, Superdex 75 (self-association)
Protocol: GST-based constructs were expressed in E. coli strain BL21 DE3 RIL (Stratagene). Unlabeled proteins were produced by overnight expression at 17° C. in LB medium containing 1 mM IPTG and 200 μg/mL ampicillin. Isotope-labeled proteins were produced by overnight expression at 17° C. in M9 supplemented with ¹⁵NH₄Cl, ¹³C-labeled D-glucose and ²H water as previously described by Devany et al., Protein Sci. 13, 2252-259 (2004). Proteins were purified by sonicating cell pellets in lysis buffer [100 mM NaCl, 50 mM Na₂HPO₄/NaH₂PO₄ (pH7.0), protease inhibitor (Roche)], separating the soluble (supernatant) and insoluble (pellet) fractions by centrifugation (12,110 g, 20 min, 4° C.), binding to glutathione sepharose (GE healthcare), washing with lysis buffer and eluting with PreScission protease (GE Healthcare) in 1 mM DTT, 50 mM Na₂HPO₄/NaH₂PO₄ [pH7.4] and, finally, concentrating with Centricon filters (Millipore). Solubility was monitored by SDS PAGE, coomassie blue staining and/or immunoblotting as discussed above. […] GST and lysozyme were purchased from Sigma.

[2] = molecular target: the molecule itself; assay: sedimentation velocity analytical ultracentrifugation (self-association)
Protocol: Sedimentation Velocity Analytical Ultracentrifugation Experiments. A3G-2K3A was diluted to 0.15, 0.4, 0.8 or 1.2 mg/ml in a buffer containing 50 mM Na₂HPO₄/NaH₂PO₄ [pH7.4], 0.005% tween 20, 5 mM dithiothreitol and 50 μM ZnCl₂. Samples were then sedimented using a 4-hole rotor at 20° C. and 55,000 rpm. The rotor and cells were preequilibrated at 20° C. and the samples were kept on ice during protein preparation and dilution. Synthetic boundary cells were loaded with 430 μL of buffer and 420 μL of the appropriate sample solution. The cells were placed in the rotor and accelerated to 24,000 rpm while monitoring the transfer of the excess buffer in each cell. Subsequently, the rotor was stopped and then gently inverted to thoroughly mix the contents of the cells. The rotor was then equilibrated under vacuum at 20° C. and after a period of ˜1 hour at 20° C. the rotor was accelerated to 55,000 rpm. Interference scans were acquired at 1 minute intervals for 6 hours. The data for each loading concentration was analyzed using the program DcDt+ (version 2.0.7). See Philo, Anal. Biochem. 354, 238-246 (2006); and Philo, Anal. Biochem. 279, 151-163 (2000). The complete data set for A3G-2K3A was analyzed using Sedphat v4.4b using the model of a hybrid local continuous distribution and global discrete species. Schuck, Anal. Biochem. 320, 104-124 (2003). […]

B1: A3G198-384 (enzyme)
chain: DPPTFTFNFNNEPWVRGRHETYLCYEVERMHNDTWVLLNQRRGFLCNQAPHKHGFLEGRHAELCFLDVIPFWKLDLDQDYRVTCFTSWSPCFSCAQEMAKFISKNKHVSLCIFTARIYDDQGRCQEGLRTLAEAGAKISIMTYSEFKHCWDTFVDHQGCPFQPWDGLDEHSQDLSGRLRAILQNQEN
notes: also called CTD
B1: no binding (tested: 1 mg (approx. 1 mL)) [1].

B2: A3G-2K3A (enzyme)
chain: B1 chain with L37K, C46A, F113K, C124A, C159A
notes: released from the GST fusion with PreScission protease
B2: no binding (tested: 0.15, 0.4, 0.8 or 1.2 mg/ml) [2].
